Holding throughout (assay): fluorescence polarisation; 37 °C, after the 25 °C reading ramped over 7 min to 37 °C and 2 min incubation; unlabeled Rb^P against 1.5 nM TMR-E2F1^TD or 7.5 nM TMR-E7^LxCxE; 25 mM Tris pH 8.0, 200 mM NaCl, 1 mM DTT, 0.1% Tween-20; apparent Kd
Common to all, as to conditions: both partners purified
(In fluorescence polarisation assays a small probe gives low polarisation when free and higher when bound to something large.)

One test deals with T1, Rb^P S751Y (human, UniProt P06400 380-788, S751Y).
T1 construct: also called variant 72
T1 sequence (looked up): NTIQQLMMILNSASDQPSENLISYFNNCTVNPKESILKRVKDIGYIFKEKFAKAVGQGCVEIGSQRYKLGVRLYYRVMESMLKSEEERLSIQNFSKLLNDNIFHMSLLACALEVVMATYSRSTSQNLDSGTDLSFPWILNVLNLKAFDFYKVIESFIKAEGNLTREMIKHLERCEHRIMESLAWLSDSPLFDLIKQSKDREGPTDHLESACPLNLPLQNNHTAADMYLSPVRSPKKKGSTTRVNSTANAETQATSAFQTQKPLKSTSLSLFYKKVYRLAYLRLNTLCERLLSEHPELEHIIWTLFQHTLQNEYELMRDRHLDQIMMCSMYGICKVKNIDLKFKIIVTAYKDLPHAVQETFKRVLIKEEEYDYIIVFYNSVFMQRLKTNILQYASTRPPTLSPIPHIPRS

A further test concerns the target T2, Rb^P R451C (human, UniProt P06400 380-788, R451C).
T2 construct: also called variant 5
T2 sequence (looked up): T1 sequence (looked up) with R72C, Y372S

A further test deals with T3, Rb^P S534R (human, UniProt P06400 380-788, S534R).
T3 construct: also called variant 23
T3 sequence (looked up): T1 sequence (looked up) with S155R, Y372S

The target of the next test is T4, Rb^P S463L (human, UniProt P06400 380-788, S463L).
T4 construct: also called variant 10
T4 sequence (looked up): T1 sequence (looked up) with S84L, Y372S

The target in a further test is T5, Rb^P S443L (human, UniProt P06400 380-788, S443L).
T5 construct: also called variant 2
T5 sequence (looked up): T1 sequence (looked up) with S64L, Y372S

Changes are numbered by the printed parent chain. Numbers in names are those of the source. No end group written: not given here. TMR = tetramethyl rhodamine dye

B1: TMR-E2F1^TD, peptide of the E2F1 transactivation domain (peptide)
peptide: {TMR}-GEGIRDLFDCDFGDLTPLD
notes: also called E2F^TD; source: synthetic peptide, bought: GenScript
Take B1: the Kd in the test with Rb^P S751Y came out at 127 nM; with Rb^P R451C it was 51 nM; with Rb^P S534R it was 18000 nM; with Rb^P S463L, 41 nM; in the test with Rb^P S443L, 55 nM.

B2: TMR-E7^LxCxE, LxCxE peptide of the E7 oncoprotein from HPV (peptide)
peptide: DLYCYEQLN
modifications: also: TMR label, position not given here
notes: source: synthetic peptide, bought: GenScript
B2: the Kd was 420 nM with Rb^P S751Y; 19 nM with Rb^P R451C; 11 nM in the test with Rb^P S534R; 17 nM in the test with Rb^P S463L; 21 nM with Rb^P S443L.

For the origin of these results see article PMC11931385, “Structural and functional analysis of cancer-associated missense variants in the retinoblastoma protein pocket domain” (The Journal of Biological Chemistry, 2025).
